6 substances from article PMC3429342 can be followed below.

Holding throughout (assay): AUC
Assay [1] addresses Dscam1 4C.31.8 fragment containing the N-terminal 8 Ig domains (Drosophila melanogaster).
Assay [2] addresses Dscam1 11C.27.25 fragment containing the N-terminal 8 Ig domains (Drosophila melanogaster).
Assay [3] addresses Dscam1 10C.27.25 fragment containing the N-terminal 8 Ig domains (Drosophila melanogaster).
Assay [4] concerns the target Dscam1^10.27.25 fragment containing the N-terminal 8 Ig domains (Drosophila melanogaster).
Assay [5] deals with Dscam1^3.31.8 fragment containing the N-terminal 8 Ig domains (Drosophila melanogaster).
Assay [6] addresses Dscam1 3C.31.8 fragment containing the N-terminal 8 Ig domains (Drosophila melanogaster).

Broadly, the Kd is the free concentration of one partner at which half of the binding sites on the other are occupied at equilibrium, for simple one-to-one binding. Read a low Kd as higher affinity. For orientation: stoichiometry N means the number of molecules, sites or subunits per partner or assembly.

“Dscam1 4C.31.8 fragment containing the N-terminal 8 Ig domains (domain or fragment)”: the Kd in assay [1] is more than 500 µM.

For “Dscam1 10C.27.25 fragment containing the N-terminal 8 Ig domains (domain or fragment)”, the Kd in assay [2] is 4.6 µM; in assay [3], more than 500 µM.

On to “Dscam1 11C.27.25 fragment containing the N-terminal 8 Ig domains (domain or fragment)”, for which, in assay [2], the Kd is more than 500 µM.

In assay [4], “Dscam1^10.27.25 fragment containing the N-terminal 8 Ig domains (domain or fragment)” registered a Kd of 1 µM and a stoichiometry N of 2. In assay [5], “Dscam1^3.31.8 fragment containing the N-terminal 8 Ig domains (domain or fragment)” returned a Kd of 2.12 µM and a stoichiometry N of 2. Regarding “Dscam1 3C.31.8 fragment containing the N-terminal 8 Ig domains (domain or fragment)”, the values for the dissociation constant Kd in assay [1] and in assay [6] were 0.99 µM and more than 500 µM, respectively.
